This assay has as its target T1, insulin (UniProt P01308 25-54; P01308 90-110, limits assumed).
T1 construct: Mature insulin has two chains (A and B) from one precursor; also called b-insulin
Kind of assay: SPR, Biacore T200; target immobilized on CM5, His6-tagged Y variant injected; 1:1 Langmuir. As to the method:
Kinetic constants (kₐ and kd) and affinities (KD) were determined for Hiss-tagged Y variants using a Biacore T200 instrument (GE Healthcare). Target proteins C4, IL-6 and insulin, respectively, were immobilized in separate flow cells on the carboxylated dextran layer of different CM5 chip surfaces (GE Healthcare).
Immobilization was performed using amine coupling chemistry according to the manufacturer's protocol and PBS pH 7.4 supplemented with 0.1 Tween20 (PBST 0.1%) as running buffer. The ligand immobilization levels on the surfaces were 3280-8830 RU for C4, 495-1184 RU for IL-6, and 270-282 RU for insulin. One flow cell surface on each chip was activated and deactivated for use as blank during analyte injections. In the kinetic experiment, PBST 0.1% was used as running buffer at a flow rate of 30 μl/min. The analytes, i.e. Y variants, were each diluted in PBST 0.1 buffer at concentrations of 1000, 500, 100, 50 and 10 nM and injected for 5 min, followed by dissociation in running buffer for 3 min. After dissociation, the surfaces were regenerated with one injection of 30 μl 10 mM HCl. Kinetic constants were calculated from the sensorgrams using the Langmuir 1:1 model of Biacore T200 Evaluation software 2.0 (GE Healthcare).

Numbering of substitutions follows the chain as printed. Names and notes keep the numbering of the source.

The text below walks through data of US20210047372A1 (Affibody, published 2021).

For orientation: Kd means the concentration at which binding is half-saturated. Read a high Kd as a looser complex. The term koff denotes a measure of how fast the partners let go of each other. For orientation: kon means a measure of how fast the partners come together. Read a high kon as faster complex formation.

T1 sequence (P01308 25-54 limits assumed, form in doubt, chain 1 of 2): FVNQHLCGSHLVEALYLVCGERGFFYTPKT
T1 sequence (P01308 90-110 limits assumed, form in doubt, chain 2 of 2): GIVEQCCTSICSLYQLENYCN

B1: Y00299 (designed binder)
chain: MGSSHHHHHHGSSLAEAKEAAIAELDSKGVGAYQIKFIQVAKTVEQVQILKQAILADLPA
notes: From library Ylib002Naive.I
In turn, B1 registered a Kd of 6.5 nM, a koff of 0.002 s⁻¹ and a kon of 310000 M⁻¹ s⁻¹.

B2: Y02716 (designed binder)
chain: MGSSHHHHHHGSSLAEAKEAAIAELDSYGVGARQIKWIEQAKSVEVVQWLKQAILADLPA
notes: Y00301 with K15Y + Q26E
In the case of B2, the affinity, expressed as Kd, was 7.6 nM; the koff was 0.21 s⁻¹; the kon was determined as 2.7e+07 M⁻¹ s⁻¹.

B3: Y00304 (designed binder)
chain: B1 chain with K42H, T43D, Q46E
notes: From library Ylib002Naive.I
As for B3, the Kd stood at 21 nM, the koff was found to be 0.0011 s⁻¹ and the kon worked out at 85000 M⁻¹ s⁻¹.

B4: Y02717 (designed binder)
chain: B1 chain with K28Y, Q39E, V40I, K42H, Q46E, I49L, L50M
notes: Y00310 with K15Y + Q26E
Turning to B4, binding was characterised by a dissociation constant (Kd) of 610 nM, the koff amounted to 0.02 s⁻¹ and the kon turned out to be 33000 M⁻¹ s⁻¹.

B5: Y02714 (designed binder)
chain: B1 chain with Q39E, V40I, K42H, Q46E, I49L, L50M
notes: Y00310 with Q26E
Molecule B5 displayed a Kd of 540 nM, a koff of 0.16 s⁻¹ and an on-rate constant (kon) of 290000 M⁻¹ s⁻¹.

B6: Y00345 (designed binder)
chain: B1 chain with Q46A, I49A, L50I
notes: From library Ylib002Naive.I
The molecule B6 had a Kd of 61 nM, a koff of 0.017 s⁻¹ and an on-rate (kon) of 290000 M⁻¹ s⁻¹.

B7: Y02710 (designed binder)
chain: B2 chain with R33A, Q34K, E39Q, Q40D, V46T, W49F, D57E
notes: Y00358 with K15Y
The molecule B7 came in with a Kd of 14 nM, a koff of 0.0027 s⁻¹ and a kon of 190000 M⁻¹ s⁻¹.

B8: Y00358 (designed binder)
chain: MGSSHHHHHHGSSLAEAKEAAIAELDSKGVGAAKIKWIQDAKSVETVQFLKQAILAELPA
notes: From library Ylib002Naive.I
In turn, B8 displayed a Kd of 10 nM, a koff of 0.0023 s⁻¹ and a kon of 220000 M⁻¹ s⁻¹.

B9: Y02709 (designed binder)
chain: B8 chain with I22L
notes: Y00358 with I9L
As to B9, the Kd is 380 nM, the dissociation rate constant (koff) worked out at 0.01 s⁻¹ and the kon worked out at 27000 M⁻¹ s⁻¹.

B10: Y02711 (designed binder)
chain: B8 chain with Q39E
notes: Y00358 with Q26E
As for B10, the Kd stood at 54 nM, the dissociation rate constant (koff) stood at 0.008 s⁻¹ and the on-rate constant (kon) worked out at 150000 M⁻¹ s⁻¹.

B11: Y02715 (designed binder)
chain: B8 chain with K28Y, Q39E
notes: Y00358 with K15Y + Q26E
With B11, the Kd was determined as 280 nM, the koff is 0.0019 s⁻¹ and the association rate constant (kon) worked out at 6700 M⁻¹ s⁻¹.

B12: Y02713 (designed binder)
chain: B1 chain with K28Y, V40I, K42H, Q46E, I49L, L50M
notes: Y00310 with K15Y
B12 had an equilibrium dissociation constant (Kd) of 190 nM, a koff of 0.014 s⁻¹ and a kon of 110000 M⁻¹ s⁻¹.

B13: Y00310 (designed binder)
chain: B1 chain with V40I, K42H, Q46E, I49L, L50M
notes: From library Ylib002Naive.I
Regarding B13, the Kd is 37 nM, the koff came out at 0.0063 s⁻¹ and the kon stood at 170000 M⁻¹ s⁻¹.

B14: Y00263 (designed binder)
chain: MGSSHHHHHHGSSLAEAKEAAIAELKSKGVGAYQKSFIELAKSVEHVELLKEAILADLP
notes: Y00032 with D13K
In the case of B14, the Kd was determined as 130 nM.

B15: Y00296 (designed binder)
chain: B14 chain with K26D, K35I, S36K, E39Q, E48Q, E52Q
notes: Y00293 with E26Q
As to B15, the affinity, expressed as Kd, was 37 nM.

B16: Y00275 (designed binder)
chain: B14 chain with K26D, E52Q
notes: Y00032 with E39Q
Consider B16, for which the Kd worked out at 59 nM.

B17: Y00272 (designed binder)
chain: B14 chain with K26D, A41G
notes: Y00032 with A28G
For the molecule B17, the affinity, expressed as Kd, was 110 nM.

B18: Y00266 (designed binder)
chain: B14 chain with K26D, G31S
notes: Y00032 with G18S
The molecule B18 registered a Kd of 56 nM.

B19: Y00264 (designed binder)
chain: B14 chain with K26D, K28Y
notes: Y00032 with K15Y
As for B19, the Kd turned out to be 64 nM.

B20: Y00265 (designed binder)
chain: B14 chain with K26D, V30I
notes: Y00032 with V17I
B20: the affinity, expressed as Kd, was 120 nM.

B21: Y00268 (designed binder)
chain: B14 chain with K26D, K35I
notes: Y00032 with K22I
Consider B21, for which the dissociation constant (Kd) was 84 nM.

B22: Y00271 (designed binder)
chain: B14 chain with K26D, E39Q
notes: Y00032 with E26Q
B22 showed a Kd of 47 nM.

B23: Y00269 (designed binder)
chain: B14 chain with K26D, S36K
notes: Y00032 with S23K
As to B23, the affinity, expressed as Kd, was 390 nM.

B24: Y00273 (designed binder)
chain: B14 chain with K26D, E45Q
notes: Y00032 with E32Q
B24 had a Kd of 77 nM.

B25: Y00274 (designed binder)
chain: B14 chain with K26D, E48Q
notes: Y00032 with E35Q
In turn, B25 showed a Kd of 56 nM.

B26: Y00276 (designed binder)
chain: B14 chain with K26D, A56K
notes: Y00032 with A43K
Molecule B26 registered a Kd of 76 nM.

B27: Y00267 (designed binder)
chain: B14 chain with K26D, A32E
notes: Y00032 with A19E
B27 showed a Kd of 59 nM.

B28: Y00032 (designed binder)
chain: MGSSHHHHHHGSSLAEAKEAAIAELDSKGVGAYQKSFIELAKSVEHVELLKEAILADLPASGSVD
Turning to B28, binding was characterised by a dissociation constant (Kd) of 50 nM.

B29: Y00125 (designed binder)
chain: B28 chain with I22N
notes: Differs from Y00032 only in position 9 (N instead of I)
As to B29, binding was put at a Kd of 110 nM.

B30: Y00296a (designed binder)
chain: MGSSHHHHHHGSSLAEAKEAAIAELDSKGVGAYQIKFIQLAKSVEHVQLLKQAILADLPASYGS
notes: if it is only 46 residues long, ASYGS must be added at the C-terminus
B30: the Kd is 22 nM.

B31: Y00330 (designed binder)
chain: MGSSHHHHHHGSSLAEAKEAAIAELDSKGVGAKYIKMIQMAKHVETVQYMKQAILASLPA
notes: From library Ylib002Naive.I
B31 returned a Kd of 120 nM, a koff of 0.0037 s⁻¹ and a kon of 30000 M⁻¹ s⁻¹.

B32: Y00356a (designed binder)
chain: B31 chain with M40H, K42H, H43Y, T46V, Y49W, M50L, S57H
notes: From library Ylib002Naive.I; if it is only 46 residues long, an A must be added at the C-terminus
B32 gave a Kd of 0.17 nM, a koff of 0.0061 s⁻¹ and a kon of 3.4e+07 M⁻¹ s⁻¹.

B33: Y00361 (designed binder)
chain: B31 chain with Y34F, M40S, H43L, Y49L, M50L, S57D
notes: From library Ylib002Naive.I
As for B33, binding was put at a Kd of 310 nM, the koff was determined as 0.0036 s⁻¹ and the association rate constant (kon) is 12000 M⁻¹ s⁻¹.
